In patent US20230399377A1:
Like-named read-outs stand apart in the source and are kept apart here.

Key:
[1] = biological target: recombinant human VEGF-A165 (human) (UniProt P15692)
[2] = biological target: recombinant human VEGF-A165 (human) (UniProt P15692); remark: listed apart in the source
[3] = biological target: recombinant human VEGF-A165 (human) (UniProt P15692); remark: listed apart in the source
[4] = biological target: T1, human PlGF (human) (UniProt P49763); test: SPR Biacore; Fc fusion captured on anti-human IgG (Fc) antibody chip, PlGF as analyte, 1:1 model
T1 sequence (looked up): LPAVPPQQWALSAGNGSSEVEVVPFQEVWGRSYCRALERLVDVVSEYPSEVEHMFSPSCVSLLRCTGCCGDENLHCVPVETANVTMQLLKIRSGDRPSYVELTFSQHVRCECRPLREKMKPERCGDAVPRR

[5] = biological target: T1, human PlGF (human); test: as above; remark: listed apart in the source
[6] = biological target: recombinant human VEGF-A165 (human) (UniProt P15692); test: SPR Biacore; Fc fusion captured on anti-human IgG (Fc) antibody chip, VEGF-A165 as analyte, 1:1 model
[7] = biological target: T2, human VEGF-B 167/189 (human) (UniProt P49765); test: SPR Biacore; Fc fusion captured on anti-human IgG (Fc) antibody chip, VEGF-B167/189 as analyte, 1:1 model
T2 sequence (looked up): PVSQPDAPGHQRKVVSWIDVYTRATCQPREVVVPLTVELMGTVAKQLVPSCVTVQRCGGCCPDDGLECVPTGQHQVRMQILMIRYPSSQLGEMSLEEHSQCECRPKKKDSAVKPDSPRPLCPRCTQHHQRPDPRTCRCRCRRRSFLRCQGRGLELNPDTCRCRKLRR

[8] = biological target: recombinant human VEGF-C (human) (UniProt P49767)
[9] = biological target: recombinant human VEGF-C (human) (UniProt P49767); remark: listed apart in the source
[10] = biological target: recombinant human VEGF-C (human) (UniProt P49767); remark: listed apart in the source
[11] = biological target: recombinant human VEGF-D (human) (UniProt O43915)
Chain of recombinant human VEGF-D (human) (O43915 93-201 limits assumed): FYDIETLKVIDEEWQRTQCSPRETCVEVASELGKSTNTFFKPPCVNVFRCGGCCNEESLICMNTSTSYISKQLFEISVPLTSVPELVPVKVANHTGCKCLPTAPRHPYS

Chain of recombinant human VEGF-A165 (human) (P15692 other isoform, or with tags, fused parts or gaps limits assumed): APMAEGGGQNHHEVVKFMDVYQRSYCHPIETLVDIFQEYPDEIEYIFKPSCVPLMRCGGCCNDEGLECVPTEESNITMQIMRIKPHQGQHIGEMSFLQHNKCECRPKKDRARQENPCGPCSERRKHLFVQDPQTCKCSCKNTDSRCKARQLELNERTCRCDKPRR
Chain of recombinant human VEGF-C (human) (P49767 103-227 limits assumed): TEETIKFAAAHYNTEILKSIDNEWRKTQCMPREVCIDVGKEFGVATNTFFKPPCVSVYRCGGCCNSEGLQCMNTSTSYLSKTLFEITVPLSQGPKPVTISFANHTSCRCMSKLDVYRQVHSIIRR
Chain of aflibercept (Fc fusion) (chain): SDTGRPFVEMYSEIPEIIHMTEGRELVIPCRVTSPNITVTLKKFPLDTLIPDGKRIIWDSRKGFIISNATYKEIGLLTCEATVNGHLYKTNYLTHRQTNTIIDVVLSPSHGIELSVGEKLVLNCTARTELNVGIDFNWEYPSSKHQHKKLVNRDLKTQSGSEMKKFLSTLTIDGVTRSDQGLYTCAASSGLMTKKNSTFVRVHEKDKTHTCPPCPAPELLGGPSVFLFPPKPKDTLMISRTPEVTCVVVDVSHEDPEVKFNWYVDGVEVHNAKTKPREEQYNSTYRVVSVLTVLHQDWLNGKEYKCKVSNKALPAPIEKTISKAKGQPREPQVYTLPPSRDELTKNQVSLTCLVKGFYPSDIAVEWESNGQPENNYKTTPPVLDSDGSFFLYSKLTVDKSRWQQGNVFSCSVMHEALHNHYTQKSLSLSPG

Row | Substance | IC50, inhibition of VEGF-A165 (60 ng/mL) mediated VEGFR-2 signaling, VEGFR-2-NFAT-RE luciferase reporter cells [1] [nM] | IC50, inhibition of VEGF-A165 (100 ng/mL on the sheet) mediated HLEC proliferation, alamarBlue reduction [2] [nM] | IC50, inhibition of VEGF-A165 (60 ng/mL) mediated VEGFR-2 signaling, VEGFR-2-NFAT-RE luciferase reporter cells [3] [nM] | Kd [4] [nM] | Kd [5] [nM] | Kd [6] [nM] | Kd [7] [nM] | IC50, inhibition of VEGF-C (25 ng/mL) mediated VEGFR-2 signaling, VEGFR-2-NFAT-RE luciferase reporter cells [8] [nM] | IC50, inhibition of VEGF-C (40 ng/mL on the sheet) mediated HLEC proliferation, alamarBlue reduction [9] [nM] | IC50, MIXED STIMULUS VEGF-C (25 ng/mL) + VEGF-D (150 ng/mL): inhibition of HLEC proliferation, alamarBlue reduction; one IC50 for the mixture [10] [nM] | IC50, MIXED STIMULUS VEGF-C (25 ng/mL) + VEGF-D (150 ng/mL): inhibition of HLEC proliferation, alamarBlue reduction; one IC50 for the mixture [11] [nM]
1 | aflibercept (Fc fusion) | 0.41 | 1.18 | 0.39 | 0.48 | 0.484 | 0.0336 | 0.0173 |  |  |  | 
2 | recombinant human VEGFR-3 containing 7 extracellular domains (from UniProt P35916 25-775) (receptor) |  |  |  |  |  |  |  | 0.0093 | 1.47 | 1.26 | 1.26
